# Several values for one entry are separate records, joined by “and”; a condition that tells them apart may be missing. Identical values can stand only once. Like-named read-outs stand apart in the source and are kept apart here.
# B1: Interferon gamma: type II interferon with anti-viral and anti-scarring activity (protein, UniProt P01579 24-161, looked up)
# Interferon gamma: QDPYVKEAENLKKYFNAGHSDVADNGTLFLGILKNWKEESDRKIMQSQIVSFYFKLFKNFKDDQSIQKSVETIKEDMNVKFFNSNKKKRDDFEKLTNYSVTDLNVQRKAIHELIQVMAELSPAAKTGKRKRSQMLFRG
# Columns and labels:
# [1] = cited from earlier work; for isoelectric point (pI): stated in the description; for Isoelectric Point: peptide or protein load molecule, Table 7
# adenoviral infection = settings: cited from earlier work
# [2] = rat, in vivo, 10 mg/kg
# [3] = Lysostaphin PK study (serum lysostaphin activity assay); type: in vivo; settings: Sprague Dawley rats, i.v. bolus 12 mg lysostaphin/Kg; lysostaphin 50% of carrier weight
# Protocol: Four carriers were selected for PK study. CSPEG106G, HPPEG105G, 20PLPEG1030-DTPA, and 20PLPEG1030-DTPA-SO were loaded with Lysostaphin equivalent to 50% of the carrier weight. These formulations were obtained by dissolving together an appropriate amount of carrier and Lysostaphin in water and incubating for two hours followed by lyophilization. Each lyophilized formulation (including unformulated lysostaphin alone) was dissolved in saline and administered to Sprague Dawley rats (n=4) by slow (at least 1 min) i.v. bolus (12 mg lysostaphin/Kg) via the lateral tail vein. Blood samples were taken from the orbital sinus at 5 m, 15 m, 30 m, 60 m, 120 m, 4 h, 6 h, 24 h, 32 h (30 h), and 48 h and placed in tubes containing Protease Inhibitors (AEBSF, Aprotinin, E-64, EDTA, and Leupeptin). Sera were obtained by centrifugation at 13,000 rpm. All the sera were stored at −80° C. until used in the assay. 100 of serum was used in this assay for each time point. Lysostaphin's activity was measured by activity assay as follow: Stock buffer (10×) was prepared to contain 1M MOPS/10% Tween (by wt.)/5 mM EDTA/pH 7.3. The final reaction mixtures (2000) in black 96-well plate were prepared to contain 5 μg substrate, 100 mM MOPS, 1% Tween20, 0.5 mM EDTA, pH 7.3, and 100 of serum samples. The samples were added last and after addition the wells were mixed and bubbles in the solution was removed using pipette tip wet with ethanol. Fluorescence (Ex485 nm/Em535 nm) increase was monitored for two hours using Chameleon 96-well microplate fluorometer (Bioscan) every 7.5 minutes for 2 hours. The substrate gave fluorescence product when lysostaphin proteolytically cleaved it.
# bacteria = settings: cited from earlier work
molecule,measurement,setting,value
Nerve growth factor: growth factor listed as basic protein load molecule,isoelectric point (pI),[1],8.5-9.5
platelet derived growth factor,isoelectric point (pI),[1],8.5-10
Fibroblast growth factor,isoelectric point (pI),[1],8.0-9.0 and 9.6
ACYCRIPACI-AGERRYGTCI-YQGRLWAFCC [HNP-1],reduction of adenoviral infection,adenoviral infection,more than 95%
H-RRRPRPPYLPRPRPPPFFPPRLPPRIPPGFPPRFPPRFP-OH [PR39],level at 24 h,[2],370 ng/mL
same,level at 48 h,[2],30 ng/mL
same,Isoelectric Point,[1],9.96
"erythropoietin without sialic acid: erythropoietin without sialic acid, listed as load molecule",isoelectric point (pI),[1],8.5
GLP1: peptide load molecule with isoelectric point 5.4 used in Table 7,Isoelectric Point,[1],5.4
Vascular endothelial growth factor,isoelectric point (pI),[1],8.0-9.5
"Lysostaphin: 25-kDa peptidase produced by Staphylococcus simulans, cleaves glycine-glycine bond of Staphylococcus aureus cell wall cross-bridge",AUC0 to last,[3],64.2 hr (μg/ml)
same,AUC0 to ∞,[3],67 hr (μg/ml)
same,C0,[3],301000 ng/mL
same,Mean residence time,[3],0.984 h
same,Terminal t1/2,[3],1.53 h
same,Isoelectric Point,[1],9.56
same,isoelectric point (pI),[1],9-10
same,isoelectric point (pI),[1]; listed as lysostaphin,9.56
"(klaklak)2: synthetic 14 amino acid D-peptide, programmed cell death-inducing sequence (KLAKLAKKLAKLAK; D-amino acids, C-terminal amide)",concentration that kills bacteria relative to that required to kill eukaryotic cells,bacteria,1%
Heparin-binding EGF: EGF-related growth factor that signals through the EGF receptor and binds heparin,Isoelectric Point,[1],8.56
B1,isoelectric point (pI),[1],8.5-9.5

# From USRE50618E1, “Anionic-core composition for delivery of therapeutic agents, and methods of making and using the same” (PharmaIN Corporation, priority 2009, dated 2025)
